B1: engineered scaffold protein S005 (designed binder)
chain: MIKEEHVIIQAEFYLNPDQSGEFMFDFDGDEIFHVDMAKKETVWRLEEFGRFASFEAQGALANIAVDKANLEIMTKRSNYTPMGDTRPRFLWQLKFECHFFNGTERVRLLERCIYNQEESVRFDSDVGEYRAVTELGRPDAEYWNSQKDLLEQRRAAVDTYCRHNYGVGESFTVQGGSHHHHHHLE
notes: Derived from MHC II; also called scaffold v1.1; v1.1
B2: engineered scaffold protein S090 (designed binder)
chain: IKEEHSIRQNEMYLNPDQSGLFEFHLDGQPIFRVDMQKKRTKWQLEEFGRFASFEAQGALANIAVDKANLEIMTKRSNQSEAGSHSWQLIFVCEFHEGTESVRLSERCYYNQELSVSFNSDVGEYRAVTELGRPDAEYWNSQKDLLEQRRAAVDTYCRHNYGVGESFTVQRRGGSHHHHHHLE
notes: also called scaffold v1.2; v1.2
B3: engineered scaffold protein S084 (designed binder)
chain: IKEEHVIQQSEYYTNPDQSGEFQFDFDGDEIFHVDMAKKETVWRLEEFGRFASFEAQGALANIAVDKANLEIMTKRSNYTGDTRPRFNWQLKFECHFFNGTERVRLLERCNYNQEESVRFDSDVGEYRAVTELGRPDAEYWNSQKDLLEQRRAAVDTYCRHNYGVGESFTVQRRGGSHHHHHHLE

Columns and labels:
[1] = biological target: T1, CD74 disordered region peptide (CLIP), PPKPVSKMRMATPLLMQALPMGALP (biotin label); experiment: ELISA: scaffold coated on plate, biotinylated peptide titrated, streptavidin-HRP fluorescence
T1 construct: also called CD74 Peptide
T1 peptide: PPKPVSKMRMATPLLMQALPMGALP
Procedure: (§1) Binder proteins were coated on the surface of a high binding capacity 96 well plate by incubating 100 μL of protein at 5 μg/mL in a coating solution (10 mM Tris pH 8.8, 50 mM NaCl), overnight at 4 C. The next morning, the coating solution was aspirated out and wells were washed once with 300 μL ELISA wash buffer (1×PBS, 0.05% Tween-20) and solution was aspirated out. The wells were blocked with 200 μL of a blocking buffer (1×PBS, 0.05% Tween-20, 3% BSA) at room temperature for 1 hour. After one hour, the blocking solution was aspirated out and 100 μL of biotinylated polypeptide in a binding buffer (1×PBS, 0.05% Tween-20, 0.5% BSA) at various concentrations was added to the appropriate well and incubated for 20 minutes. Peptide solution was aspirated out after 20 minutes and wells were washed 5 times with 300 μL of ELISA wash buffer. To detect the biotinylated peptide, 100 μL of streptavidin-HRP (50 ng/ml) was added to each well and incubated for 1 hour. The wells were subsequently washed 5 times with 300 μL of ELISA wash buffer. 100 μL of QuantaBlu Fluorogenic Peroxidase substrate solution was added to each well, incubated for 30 minutes and reaction stopped by adding 100 μL of stop solution. Fluorescent signal from each well was measured using a Biotek Cytation5 plate reader by exciting the fluorophore at […] and measuring emission at 420 nm. Fluorescent signals were plotted as a function of polypeptide concentration.

[2] = biological target: T2, CYSLTR2 short linear epitope peptide, SISVSEMEPNGTFSNNNSRNC (N-terminal biotin); experiment: as above
T2 peptide: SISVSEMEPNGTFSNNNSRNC
Procedure: as §1

[3] = biological target: T3, 25 amino acid epitope of CLIP (CD74); experiment: BLI (Octet RED), biotinylated peptide on streptavidin sensor
T3 construct: also called CLIP Peptide
Procedure: Streptavidin sensor tips for the BLI instrument were equilibrated in an equilibration buffer (1×PBS, 0.05% Tween 20, 0.5% BSA) for 5 minutes. Biotinylated polypeptide in the equilibration buffer at 0.5 μM was loaded on the streptavidin sensor over 60 s. After substrate loading, the sensor tips were washed in the equilibrating buffer for 5 minutes to block non-specific binding and to obtain a baseline reading. Peptide loaded and blocked tips were then introduced into wells containing polypeptides in the equilibrating buffer at varying concentrations. The binding and dissociation data are fit using the OCTET software to obtain kₒₙ, koff and consequently KD, the binding affinity.

[4] = biological target: T4, CYSLTR2 N-terminal disordered region peptide, MERKFMSLQPSISVSEMEPNGTFSNNNSRNCTIENFKREFFP (biotin label); experiment: modified sandwich ELISA, fluorescence grade by the table's key
T4 construct: also called CysLT2; CysLT2r
T4 peptide: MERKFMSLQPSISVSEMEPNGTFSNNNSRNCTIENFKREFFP
Procedure: as §1

[5] = biological target: T5, CRACM disordered region polypeptide; experiment: as above
T5 construct: domain: disordered region
Procedure: as §1

[6] = biological target: T1, CD74 disordered region peptide (CLIP), …; experiment: as above
Procedure: as §1

[7] = biological target: T6, Urotensin-2 receptor N-terminal peptide, MALTPESPSSFPGLAATGSSVPEPPGGPNATLNSSWASPTEPSSLEDLVATGTI (biotin label); experiment: modified sandwich ELISA, grade by the table's key
T6 construct: also called Urotensin IIR; GPCR2 (Urotensin II)
T6 peptide: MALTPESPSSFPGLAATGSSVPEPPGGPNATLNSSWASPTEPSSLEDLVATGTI
Procedure: as §1

[8] = biological target: T7, TNFRSF13B disordered region peptide, LPPELRRQRSGEVENNSDNSGRYQ (biotin label); experiment: modified sandwich ELISA, grade by the table's key
T7 construct: also called TNFRSF13B Peptide
T7 peptide: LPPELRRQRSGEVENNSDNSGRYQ
Procedure: as §1

[9] = biological target: T4, CYSLTR2 N-terminal disordered region …; experiment: ELISA, fluorescence at 10000 nM peptide divided by the no-scaffold control
Procedure: as §1

[10] = biological target: T8, MERKFMSLQPSISVSEMEPNG (N-terminal biotin); experiment: ELISA: scaffold coated on plate, N-terminally biotinylated peptide titrated, streptavidin-HRP fluorescence
T8 construct: also called CYSLTR2 N-terminal 21-mer peptide
T8 peptide: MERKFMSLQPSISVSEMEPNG
Procedure: as §1

[11] = biological target: T2, CYSLTR2 short linear epitope peptide, …; experiment: as above
Procedure: as §1

[12] = biological target: T4, CYSLTR2 N-terminal disordered region …; experiment: modified sandwich ELISA (FIGS. 30A, 30B)
Procedure: as §1, with “Fluorescent signals were plotted as a function of polypeptide concentration.” left out

[13] = biological target: T9, KAAG1 disordered region peptide, PGAAAAHLPRWPPPQLAASRREA (biotin label); experiment: modified sandwich ELISA, fluorescence grade by the table's key
T9 construct: also called KAAG1 Peptide
T9 peptide: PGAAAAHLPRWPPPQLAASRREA
Procedure: as §1

[14] = biological target: T4, CYSLTR2 N-terminal disordered region …; experiment: modified sandwich ELISA, grade by the table's key
Procedure: as §1

[15] = biological target: T9, KAAG1 disordered region peptide, …; experiment: modified sandwich ELISA, grade by the table's key
Procedure: as §1

Row | Binder | EC50 (read off the curve) [1] | binding result [2] | Kd [3] | fluorescent signal [4] | fluorescent signal [5] | fluorescent signal [6] | binding result [7] | binding result [8] | Fold Change (Relative Binding) [9] | Relative Binding (signal over the no-scaffold control) [9] | binding result [10] | binding result [11] | fold higher affinity compared to a non-specific protein binder [12] | fluorescent signal [13] | binding result [14] | binding result [15]
1 | B1 | ~300 nM | binds | 840 nM | 100000 to 250000 fluorescentsignal | 100000 to 250000 fluorescentsignal | > 400000 fluorescentsignal | no binding (tested: <5000 (fluorescence, key)) | no binding (tested: <5000 (fluorescence, key)) | 18.5 x | 18.5 x | – | – | – | – | – | –
2 | B2 | ~500 nM | – | – | 250000 to 400000 fluorescentsignal | – | > 400000 fluorescentsignal | – | no binding (tested: <5000 (fluorescence, key)) | 37.2 x | 37.2 x | no binding (tested: 10000 nM) | binds | > 65 fold | 250000 to 400000 fluorescentsignal | – | –
3 | B3 | – | – | – | – | – | > 400000 fluorescentsignal | no binding (tested: <5000 (fluorescence, key)) | no binding (tested: <5000 (fluorescence, key)) | – | – | – | – | – | – | no binding (tested: <5000 (fluorescence, key)) | no binding (tested: <5000 (fluorescence, key))
